According to doi:10.1101/2020.06.21.162990 (bioRxiv, 2020):

Molecular target: the molecule itself
Assay: SEC-MALS

B1: recombinant human ADA2 (adenosine deaminase 2), aa29-511 (enzyme, UniProt Q9NZK5 29-511, looked up)
chain: SIDETRAHLLLKEKMMRLGGRLVLNTKEELANERLMTLKIAEMKEAMRTLIFPPSMHFFQAKHLIERSQVFNILRMMPKGAALHLHDIGIVTMDWLVRNVTYRPHCHICFTPRGIMQFRFAHPTPRPSEKCSKWILLEDYRKRVQNVTEFDDSLLRNFTLVTQHPEVIYTNQNVVWSKFETIFFTISGLIHYAPVFRDYVFRSMQEFYEDNVLYMEIRARLLPVYELSGEHHDEEWSVKTYQEVAQKFVETHPEFIGIKIIYSDHRSKDVAVIAESIRMAMGLRIKFPTVVAGFDLVGHEDTGHSLHDYKEALMIPAKDGVKLPYFFHAGETDWQGTSIDRNILDALMLNTTRIGHGFALSKHPAVRTYSWKKDIPIEVCPISNQVLKLVSDLRNHPVATLMATGHPMVISSDDPAMFGAKGLSYDFYEVFMGIGGMKADLRTLKQLAMNSIKYSTLLESEKNTFMEIWKKRWDKFIADVATK
B1: binds.
